According to US20240368300A1 (UCME BIOSCIENCE S R L, published 2024):
Blank lines part the entries; values can stand above or below the binder they belong to.

Experiments:
[1] = target: T1, recombinant soluble human CD93 extracellular domain fused to a 6xHis tag (human, UniProt Q9NPY3 24-580); test: SPR (BIAcore), 4E1 immobilized on chip, recombinant CD93 injected, 1:1 fit
T1 construct: extracellular domain; also called recombinant CD93; soluble CD93 protein
T1 sequence: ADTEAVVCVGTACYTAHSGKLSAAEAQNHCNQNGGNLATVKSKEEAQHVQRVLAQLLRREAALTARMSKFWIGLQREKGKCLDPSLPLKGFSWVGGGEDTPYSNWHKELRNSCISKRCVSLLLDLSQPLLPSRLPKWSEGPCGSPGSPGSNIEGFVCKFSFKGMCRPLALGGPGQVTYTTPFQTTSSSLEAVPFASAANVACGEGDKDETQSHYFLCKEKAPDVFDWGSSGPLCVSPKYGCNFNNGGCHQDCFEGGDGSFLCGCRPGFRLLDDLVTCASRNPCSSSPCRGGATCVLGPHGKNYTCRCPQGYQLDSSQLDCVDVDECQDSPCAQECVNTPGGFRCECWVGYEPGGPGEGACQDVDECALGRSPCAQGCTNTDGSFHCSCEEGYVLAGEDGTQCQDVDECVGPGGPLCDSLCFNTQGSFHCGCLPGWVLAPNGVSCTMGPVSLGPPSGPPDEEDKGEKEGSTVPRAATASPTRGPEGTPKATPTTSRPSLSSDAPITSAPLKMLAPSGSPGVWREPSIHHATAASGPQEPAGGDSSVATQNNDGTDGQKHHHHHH
Experimental: The binding analysis was performed using a BIAcore 3000 equipped with a CM5 sensor chip. Briefly, 4E1 antibody was immobilized via amine groups on a CM5 sensor chip following standard procedures (flow rate 5 μl/min). For the immobilization, 4E1 diluted in 10 mM Na acetate pH 4.0 at the concentration of 10 μg/ml was injected for 360 sec over the dextran matrix on flow cell, which had been previously activated with a mixture of EDC-NHS for 420 sec. After injection of the antibody, a pulse of Ethanolamine 1M was performed to neutralize activated groups. A reference flow cell to be used as blank, was simultaneously subjected to identical procedures, but the injection of Antibody, which was substituted with injection of dilution buffer alone (HBS-EP+). Recombinant purified CD93 protein was diluted in HBS-EP+ at different concentration (1 μg/ml, 2.5 μg/ml, […] and 20 μg/ml) and injected for 180 s at a flow rate of 60 μl/min on flow cell 4 and on reference flow cell 3. […] Sensorgrams illustrated in the figure are obtained by subtraction from sensorgrams on Fc4 of those obtained on Fc3. Kinetic rates were calculated applying a 1:1 binding as fitting model using the Bia T200 evaluation software 2.0.1

human full-length CD93 = target: T2, human full-length CD93 (human, UniProt Q9NPY3 22-652); test: immunofluorescence on fixed, permeabilized late spreading HUVECs
T2 construct: whole, on cells; Used in two settings; also called human CD93 protein
T2 sequence (looked up): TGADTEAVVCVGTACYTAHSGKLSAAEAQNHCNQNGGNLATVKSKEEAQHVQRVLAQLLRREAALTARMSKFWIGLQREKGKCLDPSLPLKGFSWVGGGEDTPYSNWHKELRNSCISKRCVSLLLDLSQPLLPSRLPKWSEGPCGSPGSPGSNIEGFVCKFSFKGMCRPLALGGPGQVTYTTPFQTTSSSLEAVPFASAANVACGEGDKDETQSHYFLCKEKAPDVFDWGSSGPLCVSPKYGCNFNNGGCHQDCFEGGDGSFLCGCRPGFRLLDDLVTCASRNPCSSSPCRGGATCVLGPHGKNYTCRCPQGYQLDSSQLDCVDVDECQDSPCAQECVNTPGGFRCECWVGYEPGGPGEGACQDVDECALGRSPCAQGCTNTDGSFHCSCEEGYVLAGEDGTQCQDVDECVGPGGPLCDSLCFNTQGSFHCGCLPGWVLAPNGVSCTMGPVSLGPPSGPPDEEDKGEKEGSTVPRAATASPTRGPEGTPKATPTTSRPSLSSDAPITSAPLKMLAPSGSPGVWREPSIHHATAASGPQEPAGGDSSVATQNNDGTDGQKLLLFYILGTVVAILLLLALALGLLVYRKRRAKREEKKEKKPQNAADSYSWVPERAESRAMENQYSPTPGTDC
Experimental: Zip Alexa Fluor Rapid Antibody Labeling kit (Thermo Fisher Scientific) was used to efficiently and quickly label the mAb 4E1 with Alexa Fluor 488 following the manufacturer's instructions. Briefly, 10 μl of 1 M sodium bicarbonate solution were added to 100 μl of 4E1 solution (1 mg/ml). Next, the antibody solution was incubated for 15 min at room temperature with the fluorochrome solution (Component B) and used in immunofluorescence experiments.
Cells were seeded onto gelatin-coated glass coverslips and fixed in 3% paraformaldehyde for 15 min at room temperature during the late spreading phase. Samples were permeabilized with 0.1% Triton X-100 in PBS, and blocked with 0.3% w/v BSA in PBS, each for 15 min at room temperature. Next, cells were washed with PBS and incubated 1 h at room temperature with Alexa Fluor 488-labeled 4E1 and rabbit anti-MMRN2 antibodies. Then, samples were washed three times with PBS/0.1% Tween-20 and incubated with secondary Alexa Fluor 568-labeled anti-rabbit antibodies (Thermo Fisher Scientific), diluted at 25 μg/mL in PBS/0.1% Tween-20. After washing, coverslips were mounted with Mowiol mounting medium. Fluorescent images were captured using a Leica TCS SP2 AOBS confocal laser-scanning microscope and overlaid images were produced. A Leica HCX PL APO Ibd.BL 63×/1.40 oil objective was used. […]

[2] = target: T1, recombinant soluble human CD93 …; test: SPR (BIAcore), rec4E1 immobilized on chip, recombinant CD93 injected, 1:1 fit
Experimental: The binding analysis was performed using a BIAcore 3000 equipped with a CM5 sensor chip. Briefly, rec4E1 or 4E1 antibodies were immobilized via amine groups on a CM5 sensor chip following standard procedures. For the immobilization, the antibody diluted in 10 mM Na acetate pH 4.0 at the concentration of 10 μg/ml was injected for 360 sec over the dextran matrix on flow cell, which had been previously activated with a mixture of EDC-NHS for 420 sec. After injection of the antibody, a pulse of Ethanolamine 1 M was used to neutralize activated groups. A reference flow cell to be used as blank was simultaneously subjected to identical procedures, but the antibody was substituted with dilution buffer (HBS-EP+). Recombinant purified CD93 protein was diluted in HBS-EP+ at different concentration (10, 25, 50, 100, 250, and 500 ng/mL) and injected for 180 s at a flow rate of 60 μl/min on all flow cells. […] Kinetic rates were calculated applying a 1:1 binding as fitting model using the Bia T200 evaluation software 2.0.1.

Kd [1]: 0.45 nM
B1: anti-CD93 monoclonal antibody 4E1 (from hybridoma) (antibody, IgG1, V domains shown)
VH: QEQLQQPGTELVKPGASVRLSCKTSGYTFASYTLHWVKQTPGQGLDWIGAIYPGNGDTSYNQKFKDKATLTADKSSSTAYMQLSNLTSEDSAVYYCARLDWYFDLWGAGTTVTVS
VL: DIVLTQSPTSLAVSLGQRATISCKASQSVDYDGDSYMNWYQQKPGQPPRLLIYAASNLESGIPARFSGSGSGTDFTLNIHPVEEEDAATYYCQQNNEDPRTFGGGTKLEIK
notes: Mouse hybridoma antibody, full length, isotype IgG1 with k light chain; also called mAb 4E1; anti-CD93 4E1 mAb

binding result (human full-length CD93): binds
B2: Alexa Fluor 488-labeled 4E1 (antibody, V domains shown)
VH: QEQLQQPGTELVKPGASVRLSCKTSGYTFASYTLHWVKQTPGQGLDWIGAIYPGNGDTSYNQKFKDKATLTADKSSSTAYMQLSNLTSEDSAVYYCARLDWYFDLWGAGTTVTVS
VL: DIVLTQSPTSLAVSLGQRATISCKASQSVDYDGDSYMNWYQQKPGQPPRLLIYAASNLESGIPARFSGSGSGTDFTLNIHPVEEEDAATYYCQQNNEDPRTFGGGTKLEIK
modifications: Alexa Fluor 488 dye conjugated to the antibody (site and chain not stated)
notes: mAb 4E1 (mouse IgG1 k) labelled with the Zip Alexa Fluor Rapid Antibody Labeling kit; also called conjugated 4E1

Kd [2]: 0.00509 nM
B3: recombinant anti-CD93 monoclonal antibody rec4E1 (antibody, V domains shown)
VH: QEQLQQPGTELVKPGASVRLSCKTSGYTFASYTLHWVKQTPGQGLDWIGAIYPGNGDTSYNQKFKDKATLTADKSSSTAYMQLSNLTSEDSAVYYCARLDWYFDLWGAGTTVTVS
VL: DIVLTQSPTSLAVSLGQRATISCKASQSVDYDGDSYMNWYQQKPGQPPRLLIYAASNLESGIPARFSGSGSGTDFTLNIHPVEEEDAATYYCQQNNEDPRTFGGGTKLEIK
notes: Whole recombinant IgG1 expressed in CHO cells from the pTRIOZ vector; The light chain constant region is not described; also called recombinant 4E1
